The data set deals with T1, BldD (His-tagged) (Streptomyces coelicolor) (UniProt Q7AKQ8).
T1 sequence: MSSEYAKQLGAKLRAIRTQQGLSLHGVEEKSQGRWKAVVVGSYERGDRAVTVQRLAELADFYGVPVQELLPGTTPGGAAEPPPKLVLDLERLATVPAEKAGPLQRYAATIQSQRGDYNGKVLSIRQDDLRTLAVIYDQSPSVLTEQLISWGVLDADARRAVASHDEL
Nature of the data set: DNase I footprinting. To be noted: EMSA and extract footprinting: 25 mM HEPES pH 7.5, 4 mM DTT, 1 mM ATP, 10 mM Mg-acetate, 4% glycerol, 1 ug poly(dI-dC), 30 C, 20 min; purified BldD …. (In general: A gel shift assay detects complexes by their altered migration in electrophoresis.)

From paper PMC4282423 come the findings set out here.

As to “GTGCAGGCCGTCAGCAGCAGGGCGGAGGCGCCCAGGGCACCGACCACGGCCAGCGAACGCAAGGGGGGAAGTCGTCGTGCAGAGCTCATGATGCTGTCCGTAACCGCTCCGTCACGCAGACACACCGGACCGGTATGAAAATCACCCTATTGGCCGGGGTGGGGCGACGTCCCGTGGGCGGCGGGACCGGGAGCCTTCAG (double strand) [sspA promoter footprint probe (7434_F1/7434_R1)]”, the binding entry is “binds”.
